According to patent US20120164123:

Target: human neutrophil peptide-1 (HNP-1)
Sequence (chain, as listed by the source): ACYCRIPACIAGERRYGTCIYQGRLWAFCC

B1: arginine-specific mono-ADP-ribosyltransferase-1 (ART1), mART1 released from transfected NMU cells (protein)
chain: QSYSISQLDIFSQETPLDMAPASFDDQYAGCLADMTAALPDLNHSEFQANKVYADGWAQANNQWQERRAWGSVWGSLPPSPPGFRDEHGVALLAYTANSPLHKEFNAAVREAGRSRAHYLHHFSFKTLHFLLTEALQLLRSHRSRGCQQVYRGVHGLRFRPAGPGATVRLGGFASASLKNVAAQQFGEDTFFGIWTCLGAPIRGYSFFPEEEEVLIPPFETFQVINTSRPTQGPARIYLRALGKRSTYNCEYIKEKKCRSGPCWLGSS
In the case of B1, the “ADP-ribosylation of HNP-1 by ART1 in vitro (RP-HPLC and MS of the reaction products)” value is reported as “HNP-1 was ADP-ribosylated in vitro using purified ART1”.
